Results as given in the supplement of paper PMC6755084.

What follows are sequences tested on F1*sub RNA substrate (template-directed ligation) (assay: fraction ligated after 30 min (ligated reads / total reads); higher = more ligase activity; sequences stand for … in GAGACCGCAACTGAAAAGTTGT…AGTTCTGCACGTAGAAGCAAAAGGC). Conditions: 42 °C.
Summary of the method: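 Oligo-pool templates underwent PCR amplification, T7 transcription and gel purification to yield ribozyme variants. Gel-separated ligated and unligated bands were converted to complementary DNA with barcoded primers and sequenced on a MiSeq, keeping core bases of quality ≥20. The ratio of ligated reads to total reads gave the fraction ligated for every variant.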
“TATCACTTTCGTAGACATTTGGATGGGTTGA [3d1511]” was tested, and the fraction ligated was 0.77. In the case of “TATCACTTTCGTAGACCTTTGGATGGGTTGA [3d1510]”, the fraction ligated is reported as 0.78. “TATCACTTTCGTAGCACTTTGGATGGGTTGA [3d1508]” was tested, and the fraction ligated was 0.826. Sequence “TATCACTTTCGTGACACTTTGGATGGGTTGA [3d1506]” has a fraction ligated of 0.813. Work on “TATCACTTTCTAAACACTTTGGATGGGTTGA [3d1481]” yielded a fraction ligated of 0.79. Work on “TATCACTTTCTAAGAACTTTGGATGGGTTGA [3d1483]” yielded a fraction ligated of 0.87. Work on “TATCACTTTCTAAGACACTTGGATGGGTTGA [3d1486]” yielded a fraction ligated of 0.767. Sequence “TATCACTTTCTAAGACACTTTGATGGGTTGA [3d1487]” has a fraction ligated of 0.77. With “TATCACTTTCTAAGACACTTTGGAGGGTTGA [3d1489]” the fraction ligated was 0.026. In the case of “TATCACTTTCTAAGACACTTTGGATGGGTTA [3d1491]”, the fraction ligated is reported as 0.68. Sequence “TATCACTTTCTAAGACACTTTGGATGGGTTG [3d1492]” has a fraction ligated of 0.785. With “TATCACTTTCTAAGACACTTTGGATGGGTTGA [2d148]” the fraction ligated was 0.794. Sequence “TATCACTTTCTAAGACACTTTGGATGGTTGA [3d1490]” has a fraction ligated of 0.114. In the case of “TATCACTTTCTAAGACACTTTGGTGGGTTGA [3d1488]”, the fraction ligated is reported as 0.101. Sequence “TATCACTTTCTAAGACATTTGGATGGGTTGA [3d1485]” has a fraction ligated of 0.818. “TATCACTTTCTAAGACCTTTGGATGGGTTGA [3d1484]” gave a fraction ligated of 0.783. Work on “TATCACTTTCTAAGCACTTTGGATGGGTTGA [3d1482]” yielded a fraction ligated of 0.788. “TATCACTTTCTAGACACTTTGGATGGGTTGA [3d1480]” was tested, and the fraction ligated was 0.765. “TATCACTTTGAAGACACTTTGGATGGGTTGA [3d1465]” showed a fraction ligated of 0.819. With “TATCACTTTGTAAACACTTTGGATGGGTTGA [3d1467]” the fraction ligated was 0.823. “TATCACTTTGTAAGAACTTTGGATGGGTTGA [3d1469]” was tested, and the fraction ligated was 0.866. In the case of “TATCACTTTGTAAGACACTTGGATGGGTTGA [3d1472]”, the fraction ligated is reported as 0.802. Sequence “TATCACTTTGTAAGACACTTTGATGGGTTGA [3d1473]” has a fraction ligated of 0.793. With “TATCACTTTGTAAGACACTTTGGAGGGTTGA [3d1475]” the fraction ligated was 0.0352. “TATCACTTTGTAAGACACTTTGGATGGGTTA [3d1477]” gave a fraction ligated of 0.776. In the case of “TATCACTTTGTAAGACACTTTGGATGGGTTG [3d1478]”, the fraction ligated is reported as 0.82. In the case of “TATCACTTTGTAAGACACTTTGGATGGGTTGA [2d147]”, the fraction ligated is reported as 0.838. In the case of “TATCACTTTGTAAGACACTTTGGATGGTTGA [3d1476]”, the fraction ligated is reported as 0.119. In the case of “TATCACTTTGTAAGACACTTTGGTGGGTTGA [3d1474]”, the fraction ligated is reported as 0.0671. “TATCACTTTGTAAGACATTTGGATGGGTTGA [3d1471]” was tested, and the fraction ligated was 0.837. “TATCACTTTGTAAGACCTTTGGATGGGTTGA [3d1470]” showed a fraction ligated of 0.769. Sequence “TATCACTTTGTAAGCACTTTGGATGGGTTGA [3d1468]” has a fraction ligated of 0.783. “TATCACTTTGTAGACACTTTGGATGGGTTGA [3d1466]” showed a fraction ligated of 0.843. In the case of “TATCACTTTTAAGACACTTTGGATGGGTTGA [3d1464]”, the fraction ligated is reported as 0.768. With “TATCAGTCGTAAGACACTTTGGATGGGTTGA [3d1121]” the fraction ligated was 0.764. In the case of “TATCATGCGTAAGACACTTTGGATGGGTTGA [3d1123]”, the fraction ligated is reported as 0.833. “TATCATGTCGAAGACACTTTGGATGGGTTGA [3d1126]” gave a fraction ligated of 0.792. With “TATCATGTCGTAAACACTTTGGATGGGTTGA [3d1128]” the fraction ligated was 0.765. For “TATCATGTCGTAAGAACTTTGGATGGGTTGA [3d1130]”, the fraction ligated was 0.848. “TATCATGTCGTAAGACACTTGGATGGGTTGA [3d1133]” showed a fraction ligated of 0.776. Work on “TATCATGTCGTAAGACACTTTGATGGGTTGA [3d1134]” yielded a fraction ligated of 0.816. “TATCATGTCGTAAGACACTTTGGAGGGTTGA [3d1136]” showed a fraction ligated of 0.0722. For “TATCATGTCGTAAGACACTTTGGATGGGTTA [3d1138]”, the fraction ligated was 0.641. Work on “TATCATGTCGTAAGACACTTTGGATGGGTTG [3d1139]” yielded a fraction ligated of 0.784. With “TATCATGTCGTAAGACACTTTGGATGGGTTGA [2d109]” the fraction ligated was 0.792.
